The source of these data is patent publication US9340788B2 (priority 2007, dated 2016).

Series [1] has as its system HCMV. The series is described as follows: HCMV IE1 / viral gene expression, western blot of infected cells. Type of series: cell-based, Human cytomegalovirus. As for the experimental part:
(A) pp65 immunofluorescence after HCMV treatment (1 h, 4° C.) followed by shifting to 37° C. for indicated times. Rows represent (top to bottom): HEL, PDGFRα null fibroblasts, parental fibroblasts, null fibroblasts overexpressing hPDGFRα, HEL transfected with control, or PDGFRα siRNA. Nuclei were stained with DAPI. (B) Average±S.D. pp65 positive/100 cells counted in triplicate from (A). (C) Mock or HCMV infected cells were analyzed by western blotting with the indicated antibodies. Lanes 1-4 indicate HEL, 325S, PDGFRα null and PDGFRα null over-expressing hPDGFRα, respectively. (D) HEL transfected with control or PDGFRα siRNA were mock (lanes 1) or HCMV-treated (lanes 2) and subjected to western blots with indicated antibodies. (E) Western blot of HEL and U87 lysates after infection with mock (lanes 1), HCMV (lanes 2), or HCMV pretreated with IMC-3G3 (10 μg/ml, 12 h, lanes 3) or Gleevec (100 nM, 1 h, lanes 4). […] 6 dpi, supernatants were used to infect naïve HEL cells, followed by IE1 immunostaining and quantification (secondary infection). […]
HUVEC cells were pre-treated with IMC-3G3 (10 μg/ml, Imclone, 12 h), or Gleevec (100 nM, 1 h) prior to HCMV or mock infection. 12 hours post-infection, cell lysates were analyzed by western blot for the presence of IE1 gene product. […]
Western Blot, Immunoprecipitation, and Immunofluorescence analyses. […] Cell lysates were analyzed by SDS-PAGE. […]

Series [2] concerns HCMV. Briefly: IE1 immunofluorescence of HCMV infected HEL cells. The series is classed as cell-based, Human cytomegalovirus. The method, then: HEL cells were transfected with PDGFRα siRNA (smart pool, Dharmacon) or non-targeting control siRNA (Dharmacon) for 48-60 hours when maximum protein knockdown is achieved (panels a and b. Also see FIG. 3d). Cells were then infected with Towne, AD169, TR, or CMV-GFP strains of HCMV for 1 hour, washed and returned to 37° C. in complete growth media. Supernatants obtained from these cultures were used in subsequent assays measuring production of infectious virus as described below. […] Cultures infected with supernatants from GFP-CMV treated cells were monitored daily under the fluorescence microscope. Over 40% of the control siRNA treated cells expressed CMV-GFP 1 day post infection (c, 1 dpi) and this number increased to 100% by day 6 (c, 6 dpi). Note the appearance of “plaques”-like groups of cells in control siRNA transfected cells (c, 3 and 6 dpi). […]
Measurements of Infectious Virus Production. […] A duplicate set of cultures was analyzed by immunofluorescence at 12 hours post infection (hpi) to assess percent of IE1 positive cells, as a measure of “primary infection”. […] 12 hpi cells were stained for IE1 and IE1 positive cells were counted amongst a total of 100 cells/low magnification microscopic field, 4 fields/condition. […] Where indicated, CMV-GFP infected cells were monitored daily under fluorescence microscope. […]

“Also recorded” adds a separate entry of the source.

B1: p110α siRNA: mixture of 4 RNAi oligos, "smart pool" from Dharmacon, against PI3K p110α, SEQ ID NO: 5-8 (nucleic acid)
chain 1: GCGAAAUUCUCACACUAUU
chain 2: GUGGUAAAGUUCCCAGAUA
chain 3: GCUUAGAGUUGGAGUUUGA
chain 4: GACCCUAGCCUUAGAUAAA
modifications: pool of four siRNAs, further chemistry not given here
Consider B1, for which, in the series with HCMV [1] (HEL, siRNA 48 h prior to HCMV MOI of 1, western blot 2 h post-infection), the IE1 expression result is recorded as “inhibited”. For the same molecule, the “reduction of mean number of IE1 positive cells” value with HCMV [2] (HEL, p110α knockdown cultures, p<0.01) was ~50%.

B2: PDGFRα siRNA: "smart Pool" siRNA to hPDGFRα (Dharmacon), SEQ ID NO: 1-4 (nucleic acid)
chain 1: CGAGACUCCUGUAACCUUAUU
chain 2: GAGCUUCACCUAUCAAGUUUU
chain 3: GACAGUGGCCAUUAUACUAUU
chain 4: GAAUAGGGAUAGCUUCCUGUU
modifications: pool of four siRNAs, further chemistry not given here
Take B2: the “viral gene expression (IE1 and pp65)” value with HCMV [1] (HEL cells pre-treated with siRNA, western blot, compared to controls) was “undetectable”. The “IE1 gene expression (primary infection)” value in the series on HCMV [2] (HEL transfected with siRNA 48-60 h, 12 hpi, vs control siRNA) is reported as “Near complete inhibition; also recorded: significantly inhibited”.
